Where “and” joins values, the source holds several entries; their conditions need not be identical. Equal values may be shown once.
Substrate: O=C(O)CCC(=O)C(=O)O
Experiment: purified protein, by the assay type
Conditions: pH 7.5, 25.0 °C

B1: KDM5B (Homo sapiens) (protein)
chain: MEAATTLHPGPRPALPLGGPGPLGEFLPPPECPVFEPSWEEFADPFAFIHKIRPIAEQTGICKVRPPPDWQPPFACDVDKLHFTPRIQRLNELEAQTRVKLNFLDQIAKYWELQGSTLKIPHVERKILDLFQLNKLVAEEGGFAVVCKDRKWTKIATKMGFAPGKAVGSHIRGHYERILNPYNLFLSGDSLRCLQKPNLTTDTKDKEYKPHDIPQRQSVQPSETCPPARRAKRMRAEAMNIKIEPEETTEARTHNLRRRMGCPTPKCENEKEMKSSIKQEPIERKDYIVENEKEKPKSRSKKATNAVDLYVCLLCGSGNDEDRLLLCDGCDDSYHTFCLIPPLHDVPKGDWRCPKCLAQECSKPQEAFGFEQAARDYTLRTFGEMADAFKSDYFNMPVHMVPTELVEKEFWRLVSTIEEDVTVEYGADIASKEFGSGFPVRDGKIKLSPEEEEYLDSGWNLNNMPVMEQSVLAHITADICGMKLPWLYVGMCFSSFCWHIEDHWSYSINYLHWGEPKTWYGVPGYAAEQLENVMKKLAPELFVSQPDLLHQLVTIMNPNTLMTHEVPVYRTNQCAGEFVITFPRAYHSGFNQGFNFAEAVNFCTVDWLPLGRQCVEHYRLLHRYCVFSHDEMICKMASKADVLDVVVASTVQKDMAIMIEDEKALRETVRKLGVIDSERMDFELLPDDERQCVKCKTTCFMSAISCSCKPGLLVCLHHVKELCSCPPYKYKLRYRYTLDDLYPMMNALKLRAESYNEWALNVNEALEAKINKKKSLVSFKALIEESEMKKFPDNDLLRHLRLVTQDAEKCASVAQQLLNGKR
Question: B1 was tested. Which Km (other: 0 μM oxaloacetate) did it give?
Answer: 5.0 µM

Question: What about the Km (other: 0 μM succinate) of the same protein?
Answer: 3.4 µM

Question: What about the Km (other: KDM5B(1–822), no inhibitor, 5 μM H3K4me2(1–21)) of the same protein?
Answer: 3 µM and 2.6 ± 0.6 µM

Question: What about the Km (other: Table S1, succinate data set, competitive inhibition model) of the same protein?
Answer: 3.01 µM

Question: What about the Km (other: Table S2, oxaloacetate data set, competitive inhibition model) of the same protein?
Answer: 5.91 µM

Reference: article PMC5636616, “Studies on the Interaction of the Histone Demethylase KDM5B with Tricarboxylic Acid Cycle Intermediates” (Journal of Molecular Biology, 2017)
